From patent US20260265405A1 (NONA BIOSCIENCES SUZHOU, published 2026)
Changes are numbered by the printed parent chain. Names may count otherwise.

B1: PR300186 (antibody, human IgG1, kappa, V domains shown)
VH: QVQLQESGPGLVKPSETLSLTCTVSGGSINNYYWSWVRQPPGKGLEWIGYIFYSGSTNSNPSLKSRVIISVDTSKNQFSLKLSSVTAADTAVYYCAREVGRIAVAGWFFDLWGRGTLVTVSS
VL: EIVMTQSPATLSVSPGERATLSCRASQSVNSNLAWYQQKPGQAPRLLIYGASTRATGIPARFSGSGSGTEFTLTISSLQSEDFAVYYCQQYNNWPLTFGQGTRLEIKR
notes: Parental antibody from Harbour H2L2 mice
B2: PR300159 (antibody, V domains shown)
VH: QVQLVESGGGVVQPGRSLRLSCAASGFTFSSDGMNWVRQAPGKGLEWVAVIWNDGSNKYYADSVKGRFTISRDNSKNTLYLQMNSLRAEDTAVYYCARDRGPLWPLDYWGQGTLVTVSS
VL: DIQMTQSPSTLSASVGDRVTITCRASQSISRWLAWYQQKPGKAPKLLIYKASSLESGVPSRFSGSGSGTEFTLTISNLQPDDFATFYCQQYNSYSRTFGQGTKVEIKR
notes: as for B1
B3: PR300159-6 (antibody, V domains shown)
VH: B2 VH
VL: B2 VL with S93T
notes: PTM removal variant of PR300159: light chain S93T
B4: PR300159-5 (antibody, V domains shown)
VH: B2 VH
VL: B2 VL with N92Q
notes: PTM removal variant of PR300159: light chain N92Q
B5: PR300159-8 (antibody, V domains shown)
VH: B2 VH
VL: B2 VL with N92A
notes: PTM removal variant of PR300159: light chain N92A
B6: PR300159-9 (antibody, V domains shown)
VH: B2 VH with G33A, D54E
VL: B2 VL with S93A
notes: PTM removal variant of PR300159: heavy chain G33A and D54E, light chain S93A
B7: PR300159-3 (antibody, V domains shown)
VH: B2 VH with G33A, G55A
VL: B2 VL
notes: PTM removal variant of PR300159: heavy chain G33A and G55A
B8: PR300159-1 (antibody, V domains shown)
VH: B2 VH with G33A, D54E
VL: B2 VL with N92S
notes: PTM removal variant of PR300159: heavy chain G33A and D54E, light chain N92S
B9: PR300186-9 (antibody, human IgG1, kappa, V domains shown)
VH: B1 VH
VL: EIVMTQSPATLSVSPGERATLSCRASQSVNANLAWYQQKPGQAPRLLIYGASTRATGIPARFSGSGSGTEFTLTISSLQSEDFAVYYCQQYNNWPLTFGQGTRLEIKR
B10: PR300186-3 (antibody, human IgG1, kappa, V domains shown)
VH: B1 VH with N30Q, N58Q
VL: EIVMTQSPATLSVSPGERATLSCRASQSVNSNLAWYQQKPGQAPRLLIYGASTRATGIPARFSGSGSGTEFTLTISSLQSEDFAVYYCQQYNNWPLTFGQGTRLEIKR
B11: PR300186-10 (antibody, human IgG1, kappa, V domains shown)
VH: B1 VH with N30Q, N58Q
VL: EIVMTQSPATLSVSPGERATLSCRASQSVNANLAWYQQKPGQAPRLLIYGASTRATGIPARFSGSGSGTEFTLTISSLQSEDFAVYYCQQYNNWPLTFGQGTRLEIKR
notes: PTM removal variant of PR300186: heavy chain N30Q and N58Q, light chain S31A
B12: PR300159-4 (antibody, V domains shown)
VH: B2 VH
VL: B2 VL with S93A
notes: PTM removal variant of PR300159: light chain S93A
B13: PR300159-7 (antibody, V domains shown)
VH: B2 VH
VL: B2 VL with N92T
notes: PTM removal variant of PR300159: light chain N92T

The binders below were run against T1, membrane-bound human MSLN (on CHOK1-hu MSLN cells and endogenously on COV644 cells) (human, UniProt Q13421 296-598) (assay: flow cytometry on CHOK1-human MSLN cells, Alexa Fluor 488 anti-human IgG detection [panel B]).
T1 construct: whole, on cells; The assay field of each row says which cell line carried the protein; also called mesothelin; cell surface MSLN
T1 sequence (Q13421 other isoform, or with tags, fused parts or gaps limits assumed): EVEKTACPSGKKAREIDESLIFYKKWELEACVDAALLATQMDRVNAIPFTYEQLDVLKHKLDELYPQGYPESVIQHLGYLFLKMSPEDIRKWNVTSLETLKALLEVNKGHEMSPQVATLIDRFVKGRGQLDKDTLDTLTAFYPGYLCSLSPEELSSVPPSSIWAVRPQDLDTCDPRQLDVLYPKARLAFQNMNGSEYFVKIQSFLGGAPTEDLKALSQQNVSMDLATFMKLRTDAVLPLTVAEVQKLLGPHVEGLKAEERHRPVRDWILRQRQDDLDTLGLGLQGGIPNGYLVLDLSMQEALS
Method: (§1) Binding of recombinant anti-MSLN antibodies to human or cynomolgus MSLN-expressing cells was tested by flow cytometry.
(§2) In brief, anti-MSLN antibodies were serially diluted in staining buffer (PBS containing 2% FBS). 50 μL of diluted antibody solution was added to 50 μL of cell suspension containing 1-2×10⁵ cells and incubated at 4° C. for 1 hour. The cells were washed twice with staining buffer (PBS containing 2% FBS), and 100 μL of 1:1000 diluted florescent labeled anti-human IgG antibody (Alexa Fluor® 488 AffiniPure Goat Anti-Human IgG(H+L), Jackson ImmunoResearch, Catalog 109-545-088) was added into each well. After 1-hour incubation at 4° C., cells were washed twice with staining buffer and subjected to flow cytometry.

**Q.** How did the “EC50 (read off the curve)” value turn out when B1 was run?
**A.** Its value is about 0.4 nM.

What follows are binders tested against T1, membrane-bound human MSLN (on CHOK1-hu …) (assay: flow cytometry on COV644 cells (endogenous human MSLN), Alexa Fluor 488 anti-human IgG detection [panel A]).
Method: as §1, §2

**Q.** How did the “EC50 (read off the curve)” value turn out when B2 was run?
**A.** The value was about 0.4 nM.

What follows are binders tested against T1, membrane-bound human MSLN (on CHOK1-hu …) (assay: flow cytometry on COV644 cells).
Method: as §2, with “Binding of recombinant anti-MSLN antibodies to COV644 cell line (ECACC, catalog: 07071908) was tested by flow cytometry. In” for “In”

**Q.** B2 was tested. Which EC50 did it give?
**A.** The EC50 was 1.99 nM.

**Q.** And the “TOP (MFI)” value?
**A.** The value was 2.07e+06 MFI.

**Q.** Which EC50 does the source give for B3 here?
**A.** Its EC50 is 4.07 nM.

**Q.** What about the “TOP (MFI)” value of the same binder?
**A.** Its value is 2.19e+06 MFI.

**Q.** Which results are given for B4?
**A.** EC50: 2.75 nM; TOP (MFI): 2.13e+06 MFI

**Q.** For B5, which EC50 is on record?
**A.** The EC50 was 2.33 nM.

**Q.** And the “TOP (MFI)” value?
**A.** The value was 2.15e+06 MFI.

**Q.** How did the EC50 turn out when B6 was run?
**A.** The EC50 was 8.25 nM.

**Q.** And the “TOP (MFI)” value?
**A.** The value was 1.56e+06 MFI.

**Q.** Which results are given for B7?
**A.** EC50: 2.14 nM; TOP (MFI): 2.06e+06 MFI

**Q.** B8 was tested. Which EC50 did it give?
**A.** Its EC50 is 1.64 nM.

**Q.** What about the “TOP (MFI)” value of the same binder?
**A.** The value was 2.34e+06 MFI.

What follows are binders tested against T1, membrane-bound human MSLN (on CHOK1-hu …) (assay: flow cytometry on CHOK1-human MSLN cells, Alexa Fluor 488 anti-human IgG detection [panel A]).
Method: as §1, §2

**Q.** B2 was tested. Which “EC50 (read off the curve)” value did it give?
**A.** Its value is about 1 nM.

What follows are binders tested against T1, membrane-bound human MSLN (on CHOK1-hu …) (assay: cell-based or functional assay).

**Q.** Which “Internalization FLU” value does the source give for B1 here?
**A.** Its value is 6050 FLU.

**Q.** How did the “Internalization FLU” value turn out when B9 was run?
**A.** Its value is 8070 FLU.

**Q.** With B10 as the binder, how does the “Internalization FLU” value read?
**A.** Its value is 7040 FLU.

**Q.** With B11 as the binder, how does the “Internalization FLU” value read?
**A.** The value was 8220 FLU.

**Q.** For B2, which “Internalization FLU” value is on record?
**A.** The value was 22200 FLU.

**Q.** B12 was tested. Which “Internalization FLU” value did it give?
**A.** Its value is 20900 FLU.

**Q.** How did the “Internalization FLU” value turn out when B3 was run?
**A.** Its value is 17800 FLU.

**Q.** How did the “Internalization FLU” value turn out when B4 was run?
**A.** Its value is 20900 FLU.

**Q.** B13 was tested. Which “Internalization FLU” value did it give?
**A.** The value was 22400 FLU.

**Q.** For B5, which “Internalization FLU” value is on record?
**A.** The value was 21200 FLU.

**Q.** For B6, which “Internalization FLU” value is on record?
**A.** The value was 8300 FLU.

**Q.** Which “Internalization FLU” value does the source give for B7 here?
**A.** The value was 9180 FLU.

**Q.** How did the “Internalization FLU” value turn out when B8 was run?
**A.** Its value is 13700 FLU.

Each binder was assayed against T2, recombinant human MSLN ECD His-tag protein (Acro Biosystems, Catalog #MSN-H5223) (human, UniProt Q13421 296-580, limits assumed) (assay: BLI (Octet Red384), antibody on AHC sensor, human MSLN-His in solution).
T2 construct: extracellular domain; Bought protein; also called human MSLN protein; recombinant human MSLN-His tag; not shown: His-tag
T2 sequence (Q13421 other isoform, or with tags, fused parts or gaps limits assumed): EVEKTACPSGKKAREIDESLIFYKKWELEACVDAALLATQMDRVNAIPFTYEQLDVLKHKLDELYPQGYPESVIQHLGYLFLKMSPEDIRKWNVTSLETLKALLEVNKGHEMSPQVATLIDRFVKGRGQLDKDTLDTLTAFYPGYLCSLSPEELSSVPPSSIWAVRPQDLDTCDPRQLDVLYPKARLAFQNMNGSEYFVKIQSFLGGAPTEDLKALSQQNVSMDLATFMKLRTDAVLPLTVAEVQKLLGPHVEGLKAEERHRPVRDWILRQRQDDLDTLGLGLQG
Method: In the example, binding kinetics of anti-MSLN antibodies to soluble MSLN were analyzed by Octet Red384 (Fortebio). In Bio-Layer Interferometry (BLI) analysis, recombinant human MSLN-His tag (Acro Biosystems, Catalog #MSN-H5223) was serially diluted with 1× kinetic buffer (Fortebio). Anti-MSLN antibodies were diluted to 5 μg/mL. Then the diluted antibodies, antigen and regeneration buffer (10 mM glycine pH 1.75) were added to 96-well plates (Greiner). Rate constants for association and dissociation were measured using AHC sensor (Fortebio). The sensor surface was regenerated after each binding experiment with regeneration buffer. The traces were processed using Octet Data Analysis Software (version 11.0, Pall ForteBio, CA, USA).

**Q.** For B1, which Kd is on record?
**A.** Its Kd is 18600 pM.

**Q.** And the kon?
**A.** Its kon is 705000 M⁻¹ s⁻¹.

**Q.** For B11, which Kd is on record?
**A.** The Kd was 128000 pM.

**Q.** What about the kon of the same binder?
**A.** Its kon is 431000 M⁻¹ s⁻¹.

**Q.** What does the source list for B2?
**A.** Kd: 9.65 pM; kon: 1.28e+06 M⁻¹ s⁻¹

**Q.** Which Kd does the source give for B12 here?
**A.** The Kd was under 1 pM.

**Q.** What about the kon of the same binder?
**A.** Its kon is 978000 M⁻¹ s⁻¹.

**Q.** What does the source list for B3?
**A.** Kd: < 1 pM; kon: 819000 M⁻¹ s⁻¹

**Q.** Which Kd does the source give for B4 here?
**A.** Its Kd is under 1 pM.

**Q.** And the kon?
**A.** Its kon is 1.05e+06 M⁻¹ s⁻¹.

**Q.** What does the source list for B13?
**A.** Kd: < 1 pM; kon: 1.06e+06 M⁻¹ s⁻¹

**Q.** With B5 as the binder, how does the Kd read?
**A.** Its Kd is under 1 pM.

**Q.** And the kon?
**A.** The kon was 956000 M⁻¹ s⁻¹.

**Q.** Which results are given for B6?
**A.** Kd: < 1 pM; kon: 566000 M⁻¹ s⁻¹

**Q.** Which results are given for B7?
**A.** Kd: < 1 pM; kon: 828000 M⁻¹ s⁻¹

**Q.** B8 was tested. Which Kd did it give?
**A.** Its Kd is under 1 pM.

**Q.** And the kon?
**A.** The kon was 947000 M⁻¹ s⁻¹.
